{"source": "the Human Domainome abundance scans (Beltran et al. 2025)", "note": "± gives the uncertainty stated by the source.", "data": [{"assay": "abundance fitness (aPCA) (normalised: wild type 0, dead -1); higher = more abundant; growth selection in yeast, the domain comes from the species named", "details": "Homo sapiens", "values": [{"substance": "NEDD4-like E3 ubiquitin-protein ligase WWP2 F462P, O00308", "abundance fitness": "-0.605 ± 0.099"}, {"substance": "NEDD4-like E3 ubiquitin-protein ligase WWP2 F462Q, O00308", "abundance fitness": "-1.02 ± 0.16"}, {"substance": "NEDD4-like E3 ubiquitin-protein ligase WWP2 F462R, O00308", "abundance fitness": "-0.851 ± 0.046"}, {"substance": "NEDD4-like E3 ubiquitin-protein ligase WWP2 F462S, O00308", "abundance fitness": "-1.04 ± 0.051"}, {"substance": "NEDD4-like E3 ubiquitin-protein ligase WWP2 F462T, O00308", "abundance fitness": "-0.87 ± 0.16"}, {"substance": "NEDD4-like E3 ubiquitin-protein ligase WWP2 F462V, O00308", "abundance fitness": "-0.939 ± 0.037"}, {"substance": "NEDD4-like E3 ubiquitin-protein ligase WWP2 F462W, O00308", "abundance fitness": "-0.152 ± 0.066"}, {"substance": "NEDD4-like E3 ubiquitin-protein ligase WWP2 F462Y, O00308", "abundance fitness": "-0.048 ± 0.081"}, {"substance": "NEDD4-like E3 ubiquitin-protein ligase WWP2 F472A, O00308", "abundance fitness": "-0.373 ± 0.052"}, {"substance": "NEDD4-like E3 ubiquitin-protein ligase WWP2 F472C, O00308", "abundance fitness": "-0.48 ± 0.067"}, {"substance": "NEDD4-like E3 ubiquitin-protein ligase WWP2 F472D, O00308", "abundance fitness": "-0.319 ± 0.072"}, {"substance": "NEDD4-like E3 ubiquitin-protein ligase WWP2 F472E, O00308", "abundance fitness": "-0.357 ± 0.061"}, {"substance": "NEDD4-like E3 ubiquitin-protein ligase WWP2 F472H, O00308", "abundance fitness": "-0.291 ± 0.033"}, {"substance": "NEDD4-like E3 ubiquitin-protein ligase WWP2 F472I, O00308", "abundance fitness": "-0.495 ± 0.082"}, {"substance": "NEDD4-like E3 ubiquitin-protein ligase WWP2 F472K, O00308", "abundance fitness": "-0.355 ± 0.07"}, {"substance": "NEDD4-like E3 ubiquitin-protein ligase WWP2 F472L, O00308", "abundance fitness": "-0.289 ± 0.052"}, {"substance": "NEDD4-like E3 ubiquitin-protein ligase WWP2 F472N, O00308", "abundance fitness": "-0.373 ± 0.053"}, {"substance": "NEDD4-like E3 ubiquitin-protein ligase WWP2 F472Q, O00308", "abundance fitness": "-0.402 ± 0.045"}, {"substance": "NEDD4-like E3 ubiquitin-protein ligase WWP2 F472S, O00308", "abundance fitness": "-0.351 ± 0.048"}, {"substance": "NEDD4-like E3 ubiquitin-protein ligase WWP2 F472T, O00308", "abundance fitness": "-0.15 ± 0.065"}, {"substance": "NEDD4-like E3 ubiquitin-protein ligase WWP2 F472V, O00308", "abundance fitness": "-0.392 ± 0.044"}, {"substance": "NEDD4-like E3 ubiquitin-protein ligase WWP2 F472W, O00308", "abundance fitness": "-0.129 ± 0.05"}, {"substance": "NEDD4-like E3 ubiquitin-protein ligase WWP2 F472Y, O00308", "abundance fitness": "-0.025 ± 0.057"}, {"substance": "NEDD4-like E3 ubiquitin-protein ligase WWP2 F479C, O00308", "abundance fitness": "-0.054 ± 0.046"}, {"substance": "NEDD4-like E3 ubiquitin-protein ligase WWP2 F479D, O00308", "abundance fitness": "0.02 ± 0.072"}, {"substance": "NEDD4-like E3 ubiquitin-protein ligase WWP2 F479E, O00308", "abundance fitness": "0.027 ± 0.049"}, {"substance": "NEDD4-like E3 ubiquitin-protein ligase WWP2 F479G, O00308", "abundance fitness": "0.017 ± 0.04"}, {"substance": "NEDD4-like E3 ubiquitin-protein ligase WWP2 F479H, O00308", "abundance fitness": "-0.036 ± 0.083"}, {"substance": "NEDD4-like E3 ubiquitin-protein ligase WWP2 F479I, O00308", "abundance fitness": "-0.086 ± 0.07"}, {"substance": "NEDD4-like E3 ubiquitin-protein ligase WWP2 F479K, O00308", "abundance fitness": "-0.015 ± 0.051"}, {"substance": "NEDD4-like E3 ubiquitin-protein ligase WWP2 F479L, O00308", "abundance fitness": "-0.054 ± 0.049"}, {"substance": "NEDD4-like E3 ubiquitin-protein ligase WWP2 F479P, O00308", "abundance fitness": "-0.003 ± 0.054"}, {"substance": "NEDD4-like E3 ubiquitin-protein ligase WWP2 F479Q, O00308", "abundance fitness": "-0.082 ± 0.053"}, {"substance": "NEDD4-like E3 ubiquitin-protein ligase WWP2 F479R, O00308", "abundance fitness": "-0.046 ± 0.049"}, {"substance": "NEDD4-like E3 ubiquitin-protein ligase WWP2 F479S, O00308", "abundance fitness": "-0.013 ± 0.042"}, {"substance": "NEDD4-like E3 ubiquitin-protein ligase WWP2 F479T, O00308", "abundance fitness": "0.025 ± 0.061"}, {"substance": "NEDD4-like E3 ubiquitin-protein ligase WWP2 F479V, O00308", "abundance fitness": "-0.004 ± 0.04"}, {"substance": "NEDD4-like E3 ubiquitin-protein ligase WWP2 F479W, O00308", "abundance fitness": "-0.103 ± 0.058"}, {"substance": "NEDD4-like E3 ubiquitin-protein ligase WWP2 F479Y, O00308", "abundance fitness": "-0.18 ± 0.08"}, {"substance": "NEDD4-like E3 ubiquitin-protein ligase WWP2 G449A, O00308", "abundance fitness": "-0.269 ± 0.049"}, {"substance": "NEDD4-like E3 ubiquitin-protein ligase WWP2 G449C, O00308", "abundance fitness": "-0.668 ± 0.076"}, {"substance": "NEDD4-like E3 ubiquitin-protein ligase WWP2 G449D, O00308", "abundance fitness": "-0.127 ± 0.044"}, {"substance": "NEDD4-like E3 ubiquitin-protein ligase WWP2 G449E, O00308", "abundance fitness": "-0.167 ± 0.053"}, {"substance": "NEDD4-like E3 ubiquitin-protein ligase WWP2 G449F, O00308", "abundance fitness": "-0.163 ± 0.052"}, {"substance": "NEDD4-like E3 ubiquitin-protein ligase WWP2 G449H, O00308", "abundance fitness": "-0.274 ± 0.087"}, {"substance": "NEDD4-like E3 ubiquitin-protein ligase WWP2 G449I, O00308", "abundance fitness": "-1.09 ± 0.18"}, {"substance": "NEDD4-like E3 ubiquitin-protein ligase WWP2 G449L, O00308", "abundance fitness": "-0.174 ± 0.038"}, {"substance": "NEDD4-like E3 ubiquitin-protein ligase WWP2 G449M, O00308", "abundance fitness": "-0.11 ± 0.042"}, {"substance": "NEDD4-like E3 ubiquitin-protein ligase WWP2 G449N, O00308", "abundance fitness": "0.119 ± 0.065"}, {"substance": "NEDD4-like E3 ubiquitin-protein ligase WWP2 G449P, O00308", "abundance fitness": "-0.937 ± 0.11"}, {"substance": "NEDD4-like E3 ubiquitin-protein ligase WWP2 G449Q, O00308", "abundance fitness": "-0.107 ± 0.064"}, {"substance": "NEDD4-like E3 ubiquitin-protein ligase WWP2 G449R, O00308", "abundance fitness": "-0.14 ± 0.047"}, {"substance": "NEDD4-like E3 ubiquitin-protein ligase WWP2 G449S, O00308", "abundance fitness": "-0.17 ± 0.029"}, {"substance": "NEDD4-like E3 ubiquitin-protein ligase WWP2 G449V, O00308", "abundance fitness": "-0.679 ± 0.035"}, {"substance": "NEDD4-like E3 ubiquitin-protein ligase WWP2 G449W, O00308", "abundance fitness": "-0.283 ± 0.053"}, {"substance": "NEDD4-like E3 ubiquitin-protein ligase WWP2 G449Y, O00308", "abundance fitness": "-0.205 ± 0.067"}, {"substance": "NEDD4-like E3 ubiquitin-protein ligase WWP2 G458A, O00308", "abundance fitness": "-0.202 ± 0.059"}, {"substance": "NEDD4-like E3 ubiquitin-protein ligase WWP2 G458C, O00308", "abundance fitness": "-0.193 ± 0.051"}, {"substance": "NEDD4-like E3 ubiquitin-protein ligase WWP2 G458D, O00308", "abundance fitness": "-0.343 ± 0.079"}, {"substance": "NEDD4-like E3 ubiquitin-protein ligase WWP2 G458E, O00308", "abundance fitness": "-0.367 ± 0.063"}, {"substance": "NEDD4-like E3 ubiquitin-protein ligase WWP2 G458F, O00308", "abundance fitness": "-0.539 ± 0.1"}, {"substance": "NEDD4-like E3 ubiquitin-protein ligase WWP2 G458H, O00308", "abundance fitness": "-0.234 ± 0.068"}, {"substance": "NEDD4-like E3 ubiquitin-protein ligase WWP2 G458I, O00308", "abundance fitness": "-1.18 ± 0.19"}, {"substance": "NEDD4-like E3 ubiquitin-protein ligase WWP2 G458K, O00308", "abundance fitness": "-0.049 ± 0.045"}]}]}
